Consider 2 substances from paper doi:10.1101/2020.08.17.254201.

A word on the stoichiometry N: it is a count of units in the complex or per binding partner.

The target in assay [1] is SgEsaA_(332-725) (Streptococcus gallolyticus ATCC 43143). The assay is described as follows: SEC-MALS. For orientation: Size exclusion chromatography separates by hydrodynamic size, large species first.
For assay [2], the target named is SiEsaA_(328-685), fragment of Streptococcus intermedius B196 EsaA (Streptococcus intermedius B196). The experiment in a line: SEC-MALS.

SgEsaA_(332-725) (domain or fragment): in assay [1], the stoichiometry N worked out at 2.
For the substance “SiEsaA_(328-685), fragment of Streptococcus intermedius B196 EsaA (domain or fragment)”, the stoichiometry N in assay [2] is 2.
